Patent US20250163162A1

Target: IL10 receptor (IL10R) (human) (UniProt Q13651)
Test: cell-based or functional assay

Sequence of IL10 receptor (IL10R) (human) (Q13651 22-578, chain 1 of 2): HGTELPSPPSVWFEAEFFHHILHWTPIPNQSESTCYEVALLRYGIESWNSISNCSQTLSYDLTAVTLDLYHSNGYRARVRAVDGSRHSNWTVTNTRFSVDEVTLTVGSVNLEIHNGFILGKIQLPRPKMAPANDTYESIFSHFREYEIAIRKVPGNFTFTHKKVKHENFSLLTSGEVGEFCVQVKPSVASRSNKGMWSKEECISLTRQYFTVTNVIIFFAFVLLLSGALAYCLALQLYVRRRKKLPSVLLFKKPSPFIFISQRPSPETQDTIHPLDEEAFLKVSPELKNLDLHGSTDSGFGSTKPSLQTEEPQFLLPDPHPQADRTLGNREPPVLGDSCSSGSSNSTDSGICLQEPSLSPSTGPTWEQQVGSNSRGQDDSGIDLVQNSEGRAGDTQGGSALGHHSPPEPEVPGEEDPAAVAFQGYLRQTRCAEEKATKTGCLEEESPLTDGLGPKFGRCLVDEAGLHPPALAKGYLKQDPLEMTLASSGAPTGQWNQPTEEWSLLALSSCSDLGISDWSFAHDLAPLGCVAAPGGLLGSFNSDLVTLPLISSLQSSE
Sequence of IL10 receptor (IL10R) (human) (Q08334 20-325, chain 2 of 2, further chain): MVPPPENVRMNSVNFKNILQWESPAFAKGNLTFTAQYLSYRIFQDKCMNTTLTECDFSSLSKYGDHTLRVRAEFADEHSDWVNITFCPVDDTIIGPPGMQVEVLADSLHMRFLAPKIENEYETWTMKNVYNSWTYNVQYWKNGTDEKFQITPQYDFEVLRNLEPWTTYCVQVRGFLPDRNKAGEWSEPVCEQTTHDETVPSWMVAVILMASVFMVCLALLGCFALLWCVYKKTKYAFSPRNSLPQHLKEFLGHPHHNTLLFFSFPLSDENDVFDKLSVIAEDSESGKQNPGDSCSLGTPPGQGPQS

wild-type human IL10 (wt hIL10) (from UniProt P22301 19-178) (ligand)
pSTAT3 MFI, B cells, 0.0001 nM (unstimulated 1193.5): 1160 MFI | pSTAT3 MFI, B cells, 0.001 nM (unstimulated 1193.5): 1140 MFI | pSTAT3 MFI, B cells, 0.01 nM (unstimulated 1193.5): 1220 MFI | pSTAT3 MFI, B cells, 0.1 nM (unstimulated 1193.5): 1780 MFI | pSTAT3 MFI, B cells, 1 nM (unstimulated 1193.5): 3950 MFI | pSTAT3 MFI, B cells, 10 nM (unstimulated 1193.5): 3930 MFI | pSTAT3 MFI, B cells, 100 nM (unstimulated 1045): 2400 MFI | pSTAT3 MFI, B cells, 100 nM (unstimulated 1193.5): 2620 MFI | pSTAT3 MFI, CD4+ T cells, 100 nM (unstimulated 1778): 9660 MFI | pSTAT3 MFI, CD4 T cells, 0.0001 nM (unstimulated 1887): 1970 MFI | pSTAT3 MFI, CD4 T cells, 0.001 nM (unstimulated 1887): 1880 MFI | pSTAT3 MFI, CD4 T cells, 0.01 nM (unstimulated 1887): 2220 MFI | pSTAT3 MFI, CD4 T cells, 0.1 nM (unstimulated 1887): 5170 MFI | pSTAT3 MFI, CD4 T cells, 1 nM (unstimulated 1887): 10700 MFI | pSTAT3 MFI, CD4 T cells, 10 nM (unstimulated 1887): 10800 MFI | pSTAT3 MFI, CD4 T cells, 100 nM (unstimulated 1887): 9560 MFI | pSTAT3 MFI, CD8+ T cells, 100 nM (unstimulated 1288): 8810 MFI | pSTAT3 MFI, CD8 T cells, 0.0001 nM (unstimulated 1446): 1700 MFI | pSTAT3 MFI, CD8 T cells, 0.001 nM (unstimulated 1446): 1430 MFI | pSTAT3 MFI, CD8 T cells, 0.01 nM (unstimulated 1446): 1720 MFI | pSTAT3 MFI, CD8 T cells, 0.1 nM (unstimulated 1446): 4300 MFI | pSTAT3 MFI, CD8 T cells, 1 nM (unstimulated 1446): 8890 MFI | pSTAT3 MFI, CD8 T cells, 10 nM (unstimulated 1446): 9890 MFI | pSTAT3 MFI, CD8 T cells, 100 nM (unstimulated 1446): 9010 MFI | pSTAT3 MFI, Monocytes, 0.0001 nM (unstimulated 2116): 2050 MFI | pSTAT3 MFI, Monocytes, 0.001 nM (unstimulated 2116): 2140 MFI | pSTAT3 MFI, Monocytes, 0.01 nM (unstimulated 2116): 2840 MFI | pSTAT3 MFI, Monocytes, 0.1 nM (unstimulated 2116): 9550 MFI | pSTAT3 MFI, Monocytes, 1 nM (unstimulated 2116): 28900 MFI | pSTAT3 MFI, Monocytes, 10 nM (unstimulated 2116): 30900 MFI | pSTAT3 MFI, Monocytes, 100 nM (unstimulated 1787): 27100 MFI | pSTAT3 MFI, Monocytes, 100 nM (unstimulated 2116): 26600 MFI | pSTAT3 MFI, NK cells, 0.0001 nM (unstimulated 1315): 1310 MFI | pSTAT3 MFI, NK cells, 0.001 nM (unstimulated 1315): 1270 MFI | pSTAT3 MFI, NK cells, 0.01 nM (unstimulated 1315): 1380 MFI | pSTAT3 MFI, NK cells, 0.1 nM (unstimulated 1315): 2280 MFI | pSTAT3 MFI, NK cells, 1 nM (unstimulated 1315): 4620 MFI | pSTAT3 MFI, NK cells, 10 nM (unstimulated 1315): 5700 MFI | pSTAT3 MFI, NK cells, 100 nM (unstimulated 1149): 4380 MFI | pSTAT3 MFI, NK cells, 100 nM (unstimulated 1315): 4790 MFI
